Test results reported in paper PMC11751877.
Values belong to the molecule of their own block, whether it stands above or below them.

Columns and labels:
[1] = target: ALK4-Fc (Fc-fused ALK4 ligand-binding domain); assay: SPR; Biacore 3000, 25°C; about 500 RU of ALK4-Fc captured on anti-human IgG (Fc) CM5 chip, Fc-free Cripto-1 injected at varying concentrations; HBS/EPS with 0.5 M NaCl and 0.1% BSA, pH 7.4; KD = kd/ka
[2] = target: Cripto-1 E-Fc (EGF-like domain fused to human IgG1 Fc) (human); assay: SPR; Biacore 3000, 25°C; about 500 RU of Cripto-1-Fc construct captured on anti-human IgG (Fc) CM5 chip, Nodal injected at several concentrations; HBS/EPS (0.01 M Hepes, 0.5 M NaCl, 3 mM EDTA, 0.005% Tween 20, pH 7.4) with 0.1% BSA; 50 μL/min; fitted to a 1:1 or bivalent analyte model, KD = kd/ka; apparent
[3] = target: Cripto-1 EC-Fc (EGF-like and CFC domains fused to human IgG1 Fc) (human); assay: as above
[4] = target: full-length Cripto-1-Fc (NEC-Fc), soluble full-length variant lacking the GPI anchor, fused to human IgG1 Fc (human); assay: as above
[5] = target: Cripto-1 NE-Fc (N-terminal and EGF-like domains fused to human IgG1 Fc) (human); assay: as above

Chain of full-length Cripto-1-Fc (NEC-Fc), soluble full-length variant lacking the GPI anchor, fused to human IgG1 Fc (human) (P13385 31-163, stated change not applied): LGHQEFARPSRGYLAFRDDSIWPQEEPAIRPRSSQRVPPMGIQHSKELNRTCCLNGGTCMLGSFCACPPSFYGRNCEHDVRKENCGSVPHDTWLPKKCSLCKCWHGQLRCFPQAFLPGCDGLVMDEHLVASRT

Kd [1]: 79.9 nM
koff [1]: 0.00179 s⁻¹
kon [1]: 22400 M⁻¹ s⁻¹
Molecule: Fc-free Cripto-1 (soluble Cripto-1 from which the Fc fragment had been proteolytically removed) (domain or fragment)

Kd [2]: 27.8 nM
koff [2]: 0.00541 s⁻¹
kon [2]: 195000 M⁻¹ s⁻¹
Kd [3]: 14.3 nM
koff [3]: 0.000404 s⁻¹
kon [3]: 28200 M⁻¹ s⁻¹
Kd [4]: 10.1 nM
koff [4]: 0.0116 s⁻¹
kon [4]: 1.14e+06 M⁻¹ s⁻¹
Kd [5]: 10.4 nM
koff [5]: 0.00104 s⁻¹
kon [5]: 34100 M⁻¹ s⁻¹
B1: Nodal (ligand)
chain: HHLPDRSQLCRKVKFQVDFNLIGWGSWIIYPKQYNAYRCEGECPNPVGEEFHPTNHAYIQSLLKRYQPHRVPSTCCAPVKTKPLSMLYVDNGRVLLDHHKDMIVEECGCL
